Our source for the Koff WT/Koff mutant and Relative rate of lysis (ADCC, vs wild type ch4-4-20) values is patent US20120219551A1.

Where “and” joins values, the source holds several entries; their conditions need not be identical. Identical values can stand only once.

For assay [1], the target named is FcγRIIIA (CD16A), F158 allotype (human) (UniProt P08637). The assay can be described thus: BIAcore.
The target in assay [2] is FcγRIIA (CD32A), H131 allotype (human) (UniProt P12318). The assay can be described thus: BIAcore.
Chain of FcγRIIA (CD32A), H131 allotype (human) (P12318 34-217 limits assumed): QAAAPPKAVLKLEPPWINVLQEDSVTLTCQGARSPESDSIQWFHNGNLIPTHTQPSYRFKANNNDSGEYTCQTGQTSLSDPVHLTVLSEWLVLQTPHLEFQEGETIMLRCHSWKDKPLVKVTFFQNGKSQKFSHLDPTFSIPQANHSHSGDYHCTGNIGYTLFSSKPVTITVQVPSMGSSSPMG
The target in assay [3] is FcγRIIB (CD32B) (human) (UniProt P31994). The assay can be described thus: BIAcore.
Chain of FcγRIIB (CD32B) (human) (P31994 43-217 limits assumed): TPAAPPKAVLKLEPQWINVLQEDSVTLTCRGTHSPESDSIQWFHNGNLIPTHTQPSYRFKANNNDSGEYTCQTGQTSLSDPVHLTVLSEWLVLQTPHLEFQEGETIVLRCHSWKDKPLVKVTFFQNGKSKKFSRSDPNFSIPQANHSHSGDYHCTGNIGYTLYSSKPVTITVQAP
Assay [4] addresses FcγRIIIA (CD16A), V158 allotype (human) (UniProt P08637). The assay can be described thus: BIAcore.
Assay [5] addresses FcγRIIIA (CD16A), F158 allotype (human) (UniProt P08637). The assay can be described thus: BIAcore (as Table 27).
Assay [6] concerns the target FcγRIIB (CD32B) (human) (UniProt P31994). The assay can be described thus: BIAcore (as Table 27).
Assay [7] has as its target FcγRIIIA (CD16A), V158 allotype (human) (UniProt P08637). The assay can be described thus: BIAcore (as Table 27).
Assay [8] concerns the target FcγRIIIA on natural killer cells of human donor PBMC (human) (UniProt P08637). The assay can be described thus: cell-based or functional assay.

Chain of FcγRIIIA on natural killer cells of human donor PBMC (human) (P08637 17-254): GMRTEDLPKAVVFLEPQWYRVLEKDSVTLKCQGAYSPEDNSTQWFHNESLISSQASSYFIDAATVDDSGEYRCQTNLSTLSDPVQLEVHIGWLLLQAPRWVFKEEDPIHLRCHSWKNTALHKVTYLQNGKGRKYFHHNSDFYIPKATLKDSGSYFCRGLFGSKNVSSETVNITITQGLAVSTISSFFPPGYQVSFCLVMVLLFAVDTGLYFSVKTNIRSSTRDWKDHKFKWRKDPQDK
Chain of FcγRIIIA (CD16A), V158 allotype (human) (P08637 17-208 F176V limits assumed): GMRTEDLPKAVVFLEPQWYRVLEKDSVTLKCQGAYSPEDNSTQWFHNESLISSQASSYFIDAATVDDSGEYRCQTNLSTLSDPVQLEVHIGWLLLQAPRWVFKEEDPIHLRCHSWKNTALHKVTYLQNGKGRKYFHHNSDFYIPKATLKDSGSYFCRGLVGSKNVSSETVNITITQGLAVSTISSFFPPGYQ
Chain of FcγRIIIA (CD16A), F158 allotype (human) (P08637 17-208 limits assumed): as the sequence (P08637 17-208 F176V limits assumed) above, with V160F counted along it

For “immunoglobulin with Fc variant F243L, D270E, P396L, Q419H (antibody)”, the Koff WT/Koff mutant in assay [1] is 1.15; in assay [2], 1.11; in assay [3] it was 0.26; in assay [4] it was 1.46; in assay [5], 1.15; in assay [6], 0.26. In assay [7], the Koff WT/Koff mutant turned out to be 1.46.
Regarding “immunoglobulin with Fc variant F243L, P247L, N421K (antibody)”, the Koff WT/Koff mutant came to 1.71 in assay [1]; 0.39 in assay [2]; 0.17 in assay [3]; 1.89 in assay [4]; 1.71 in assay [5]; 0.17 in assay [6]. In assay [7], the Koff WT/Koff mutant was determined as 1.89.
The substance “ch4-4-20 MgFc52 (V240A, P396L) (antibody)” yielded a Relative rate of lysis (ADCC, vs wild type ch4-4-20) in assay [8] of 2.35.
For “immunoglobulin with Fc variant P247L, D270E, Y300L, N421K (antibody)”, the Koff WT/Koff mutant in assay [1] turned out to be 1.16; in assay [2] it was 1.84; in assay [3] it was 0.8; in assay [4], 2.44.
For the substance “ch4-4-20 MgFc59 (K370E, P396L) (antibody)”, the Relative rate of lysis (ADCC, vs wild type ch4-4-20) in assay [8] was 2.47.
On to “immunoglobulin with Fc variant K392T, P396L (antibody)”, for which the Koff WT/Koff mutant was determined as 1.81 in assay [1]; 1.22 in assay [2]; 2.35 in assay [3]; 1.49 in assay [4]; 1.81 in assay [5]; 2.35 in assay [6]. The substance also gave a Koff WT/Koff mutant in assay [7] of 1.49.
Turning to “immunoglobulin with Fc variant P396L, Q419H (antibody)”, the Koff WT/Koff mutant in assay [1] is 1.19; in assay [2], 0.63; in assay [3] it was 1.33; in assay [4], 1.19; in assay [5] it was 1.19; in assay [6] it was 1.33. In assay [7], this substance gave a Koff WT/Koff mutant of 1.19.
As for “ch4-4-20 MgFc46 (P217S, P396L) (antibody)”, the Relative rate of lysis (ADCC, vs wild type ch4-4-20) in assay [8] was determined as 2.04.
“immunoglobulin with Fc variant R255L, D270E, Y300L, P396L (antibody)”: the Koff WT/Koff mutant is 1.74 in assay [1]; 2.6 in assay [2]; 0.87 in assay [3]; 1.52 in assay [4]; 1.74 in assay [5]; 0.87 in assay [6]. In assay [7], this substance had a Koff WT/Koff mutant of 1.52.
Regarding “immunoglobulin with Fc variant R292P, V305I, P396L (antibody)”, the Koff WT/Koff mutant came out at 1.9 in assay [1]; 1.5 in assay [2]; 0.92 in assay [3]; 1.85 in assay [4]; 1.9 in assay [5]; 0.92 in assay [6]. For the same substance, the Koff WT/Koff mutant in assay [7] was determined as 1.85.
In the case of “ch4-4-20 MgFc42 (D221E, D270E, V308A, Q311H, P396L, G402D) (antibody)”, the Relative rate of lysis (ADCC, vs wild type ch4-4-20) in assay [8] amounted to 3.17.
The substance “ch4-4-20 MgFc54 (F243L, V305I, A378D, F404S, P396L) (antibody)” displayed a Relative rate of lysis (ADCC, vs wild type ch4-4-20) in assay [8] of 3.59.
Substance “ch4-4-20 MgFc60 (P217S, P396L) (antibody)” returned a Relative rate of lysis (ADCC, vs wild type ch4-4-20) in assay [8] of 1.44.
Turning to “immunoglobulin with Fc variant V284M, R292P, K370N (antibody)”, the Koff WT/Koff mutant in assay [1] came to 1.37; in assay [2], 1.79; in assay [3] it was 0.37; in assay [4], 1.14; in assay [5], 1.37; in assay [6], 0.37. The substance also came in with a Koff WT/Koff mutant in assay [7] of 1.14.
The substance “ch4-4-20 MgFc55 (R255L, P396L) (antibody)” gave a Relative rate of lysis (ADCC, vs wild type ch4-4-20) in assay [8] of 2.79.
As for “immunoglobulin with Fc variant F243L, D270E, K392T, P396L (antibody)”, the Koff WT/Koff mutant came to 2.44 in assay [1]; 1.7 in assay [2]; 0.44 in assay [3]; 3.16 in assay [4]; 2.44 in assay [5]; 0.44 in assay [6]. This substance yielded a Koff WT/Koff mutant in assay [7] of 3.16.
As for “immunoglobulin with Fc variant R255L, P396L (antibody)”, the Koff WT/Koff mutant in assay [1] turned out to be 1.39; in assay [2], 1.34; in assay [3], 2.22; in assay [4] it was 1.09; in assay [5] it was 1.39; in assay [6] it was 2.22. This substance registered a Koff WT/Koff mutant in assay [7] of 1.09.
Consider “ch4-4-20 MgFc50 (P247S, P396L) (antibody)”, for which the Relative rate of lysis (ADCC, vs wild type ch4-4-20) in assay [8] was determined as 2.1.
Still for that read-out and setting: next, “ch4-4-20 MgFc44 (K334N, P396L) (antibody)”: 2.43; “ch4-4-20 MgFc51 (Q419H, P396L) (antibody)”: 2.24.
For “immunoglobulin with Fc variant D270E (antibody)”, the Koff WT/Koff mutant in assay [1] was 1.48; in assay [2], 2.24; in assay [3] it was 0.39; in assay [4], 1.25; in assay [5], 1.48; in assay [6], 0.39. The Koff WT/Koff mutant in assay [7] was found to be 1.25.
With “immunoglobulin with Fc variant F243L, R255L, D270E, P396L (antibody)”, the Koff WT/Koff mutant in assay [1] was 1.64; in assay [2] it was 1.44; in assay [3], 0.38; in assay [4] it was 1.75; in assay [5], 1.64; in assay [6] it was 0.38. The substance further came in with a Koff WT/Koff mutant in assay [7] of 1.75.
Turning to “immunoglobulin with Fc variant F243L, P247L, D270E, N421K (antibody)”, the Koff WT/Koff mutant in assay [1] stood at 3.45; in assay [2], 0.98; in assay [3], 0.32; in assay [4] it was 2.3; in assay [5] it was 3.45; in assay [6], 0.32. In assay [7], this substance yielded a Koff WT/Koff mutant of 2.3.
On to “immunoglobulin with Fc variant F243L, D270E, G316D, R416G (antibody)”, for which the Koff WT/Koff mutant in assay [1] amounted to 1.34; in assay [2], 1.22; in assay [3] it was 0.2; in assay [4], 1.5; in assay [5] it was 1.34; in assay [6] it was 0.2. In assay [7], this substance showed a Koff WT/Koff mutant of 1.5.
In the case of “immunoglobulin with Fc variant F243I, R292P, Y300L, V305I, P396L (antibody)”, the Koff WT/Koff mutant in assay [1] is 3.12; in assay [2] it was 1.49; in assay [3], 1.05; in assay [5], 3.12; in assay [6], 1.05.
“ch4-4-20 MgFc47 (K210M, P396L) (antibody)”: the Relative rate of lysis (ADCC, vs wild type ch4-4-20) in assay [8] stood at 2.02.
“ch4-4-20 MgFc48 (V379M, P396L) (antibody)” displayed a Relative rate of lysis (ADCC, vs wild type ch4-4-20) in assay [8] of 2.01.
As for “immunoglobulin with Fc variant R255L, D270E, R292G, P396L (antibody)”, the Koff WT/Koff mutant in assay [2] turned out to be 1.05; in assay [3], 0.65; in assay [6] it was 0.65.
For “immunoglobulin with Fc variant R292P, V305I (antibody)”, the Koff WT/Koff mutant in assay [1] is 2.11 and 1.28; in assay [2], 1.56 and 0.75; in assay [4], 1.59 and 1.32; in assay [5] it was 1.28 and 2.11; in assay [7], 1.32 and 1.59.
On to “immunoglobulin with Fc variant R292G (antibody)”, for which the Koff WT/Koff mutant in assay [2] amounted to 0.14; in assay [3] it was 0.25; in assay [4], 1.54; in assay [6], 0.25; in assay [7], 1.54.
“immunoglobulin with Fc variant F243L, P396L (antibody)”: the Koff WT/Koff mutant was determined as 1.6 in assay [1]; 1.5 in assay [2]; 2.22 in assay [3]; 1.49 in assay [4]; 1.6 in assay [5]; 2.22 in assay [6]. The Koff WT/Koff mutant in assay [7] is 1.49.
As for “immunoglobulin with Fc variant D270E, P396L (antibody)”, the Koff WT/Koff mutant in assay [1] was 1.65; in assay [2], 2.44; in assay [3] it was 0.89; in assay [4] it was 1.38; in assay [5], 1.65; in assay [6] it was 0.89. Further, the Koff WT/Koff mutant in assay [7] stood at 1.38.
Take “immunoglobulin with Fc variant D270E, P396L, Q419H (antibody)”: the Koff WT/Koff mutant turned out to be 1.7 in assay [2]; 0.68 in assay [3]; 1.64 in assay [4]; 0.68 in assay [6]; 1.64 in assay [7].
In the case of “ch4-4-20 MgFc57 (L242F, P396L) (antibody)”, in assay [8], the Relative rate of lysis (ADCC, vs wild type ch4-4-20) amounted to 2.4.
